Test results: the domain aggregation screens of Martell et al. (2025)

Test: soluble fraction after stress (log2 fold change); higher = more stays soluble; pooled small domains, quantitative proteomics
Details: stress: 75 degC
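Note: 20 min heating vs room temperature control held 20 min.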

Row | Sequence | soluble fraction (log2)
1 | HMNIEIIEVQEESTPSEISKIISTESTKIIEDLLNLGVMASLETPLKNQDIEKLLEGYGYIVDIKP | 0.0251
2 | HMNIGEKIKKIRTQQNKSTYELADIINKNGFKISQSAISKIENGRKKIDIETLEEIAKALDIEVDLLIT | -0.153
3 | HMNIGIVSLAAVPMRKEPSDRAEMVNQILFGETFDVLEEQEKWTLVQLHHDAYQGWIDRKQWDYASGIAD | -1.33
4 | HMNIIHNPSKNFIESDLNDLKEGMEIEHKKFGYGLIKSIDKTQNHQKAVVNFKLVGEKTLLLSFARLRIV | -3.15
5 | HMNIILFLDELHRLLSDLPPEERNQAIKYYEDYFEDAGPENEQAILKELGSPQELANQIKATT | -0.94
6 | HMNIIMLGEFIKEQRIKRKMTQEYLASELGISRPTYSQIELGTRELTIPEARKMAAIFNISLEDFLAEKE | -2.35
7 | HMNIMNINQALNVLNLKGTVSKEELAKAYKKMAIKYHPDRNPTGVEMMKVINSAYEFLKGLNLEEIKH | 0.0759
8 | HMNINLNVGKRLKSIRQNKELSLDEVSNLTNVSKPALAQIERGASSPTINTLWKISKGLKVPLSYFLQE | -0.713
9 | HMNINVRNTGIKAVENNIINLSSDQRTFTWASNDRKLITVPFDENPYSALAAWFKTDEGIEVYQTIEKKL | -0.0488
10 | HMNIWNEWAFKKWIESDEYTGPDMTDFGHRTLVDEEFSKQYKEQMSLFKERVLTDDEFSAKYGDL | -0.811
11 | HMNKEDIASNEKLLGLLNHMSKVLKDIDFIKDDRPMIVRKINHIFKKATLSEEEINILRGVLSAIENHS | -1.46
12 | HMNKEKLLEMFESMSIIIVQSLEEKEQTEDRIETELFNEAKTPRYSTLTKQDIQSVIRNILITVGV | -1.76
13 | HMNKELVVPDLTDMRVKDAEFEAHQVGMRTEIVDSVYVRRLKRGYVYKQNPVPGSKVKKGRRIALTINAV | 0.212
14 | HMNKETYIDALERKLWDRLDPDQLRDIISYYKDYFAMEAAKGISEEETIRKLGDPALLAKSILAAE | -0.332
15 | HMNKEVDLPNFVGMTKENAQAQADKIKIKLEFEEEYSSDVEEGKIISQNPEYKENYKIKEKSTVSLKI | 0.312
16 | HMNKFKVNERVRVIATGEIGIVKGREILPVEGSKRVNIEYLVKVGNGFSNWKAFSKKELEPVR | -1.88
17 | HMNKFRVGDEVEIVKLDKTIQHFGGEEVLSPVGTKTYITYVDVTGKEIEIDKDIYSYHADDLTLV | ≥ 1.04
18 | HMNKKLEMKIEQLDLSVRLFNSLKRSGIYTVAQIIKLTEEDVMRFRSLGRKSFKELKEKLSEHGLEFE | -2.14
19 | HMNKLKALREEQGLSMMEIAKQLNMPYTTYVNYEKGTREPNSEMLIKFSKFFNVTIDYLIGNSEQKN | -2.48
20 | HMNKNLQLMINEIKKGLASEDIETRKKSVLMLSRIDAPEIIQVLEPLKDDSSEEIRKISSKIISVLSKKYT | -0.108
21 | HMNKNQGVTTTNLNFRKSASTSSLVLYTIPKNTTLDILDKLPSGWYKVKYKGLTGYVSGSYV | -2.99
22 | HMNKPTFNIFNNRLTFPFKGDITIYSLDGKRVFSAYNESSVNLSFLNRGSYISEFNNSRSVLIL | -1.34
23 | HMNKRKQRINDLMDLIREQPALSIKNLAEMLNVSEMTIRRDMAYLKSNNLLNRAHGMNFLNS | -0.407
24 | HMNKSEFLNELEKRIRVLEKNEIKDILAEYSQHIDMRMGSGLSEAEAIKDFGDMDDLAAEILEAY | -0.277
25 | HMNKVDEEKNAELVSTIQNKFSDVSAATKKKVKAFMAEHDIPNFKNADEIPTANLEAIVAMLNED | 0.255

Row | Sequence | soluble fraction (log2)
26 | HMNKYNNIEDLKEEDFENISEKYQVPVSFVKSKLDDLINWHEKNPQKNHYKNYLSALRDWVKRDSLKIKL | -0.132
27 | HMNLDELGNRIREQRIKQRLKQQDIANALMLSAQAVSKWERGENAPDISVLPDLVKILGVSVDWLLTGP | -0.949
28 | HMNLDPHVVGHRLRDLRTRRDLTLADVAAETDISVSTLSRLESGSRRATLELLVPLARTYRVTLDELVDA | -1.15
29 | HMNLDPIKRKSEILSLFESHKNVKFNEIFFEKVNKEFTVLTFLIILELVKDNIIDFSQTQEGLIEFFTR | -0.00641
30 | HMNLDVPGIIKRAKQALNLKRDSELAEFLGVSRATVTNWAARNSIDFRLLLDKLGNTVDYNWLLLGKGNPK | -1.11
31 | HMNLDYKQFQVFNNIETLNTFTNLLSDNKIDFEVENNSKIFDPSFANNDFEKEYIVKIHPNDFEKVY | 0.0557
32 | HMNLEIGAIIKSLRAKHKYTQEQLSAFLGVTPQAVSRWEAGNGYPDIELLPAIARFFEVSTDELLGL | -2.2
33 | HMNLGDLYVIMEIAGQRDDVSARLMNREGQTFLVKTGTKLKSGDVVKEITPTYIKTDHDGEEAFLYF | -0.78
34 | HMNLGETIYNLRKEKKLSQGDLAEQLSVSRQSVSKWENNSAVPDLDKLVKLSTIFGVSLDELVKG | -0.0337
35 | HMNLGLTGDPSVLYSILLQRGDSSRADLQRQTGWSLSKTTLVLNQLLAQKLIVQVGAGRSTQYRVIN | -2.78
36 | HMNLGNLAYESKVTKQVLNMIRPLHPEYSSDDITRAVKEILSEEGSRQRRVDEIARGALDVLMGNPR | 0.0661
37 | HMNLLQAHLLRLESAALLAEVREVDRQLSRWLHPLTPQSDVAIIDERNWEAAVARLTELGVHIEEGRW | -3.05
38 | HMNLNIGNNIKNIRKSKNMTQTDFAELMGLSRSYIGDLENNRSNPSIKTLEAIARALDVPIVALIN | -0.528
39 | HMNLSSETLSEMEARIGQMGVVELQDRRAYLLQEQEGTQNPSRLKEIADELSAIQKALVALV | 0.705
40 | HMNLTEIGQRIRDRREELGLSQDRLAKLGGLPRVTINQLETGSIGDLGVSKLLNLLDLLGLTLDA | -0.559
41 | HMNLTLMDALKAAGLPVDGINLSMVNKMMEEQMPIDKTSLNQMYQLVQDNKDINVTTLVELKRLG | 0.0398
42 | HMNLTSNDAYSRILNAIITSELRPGDTVTEIQLAQKFGFGRTPVREAIMRLENEGFIVSAERKKRVYIL | -2.97
43 | HMNLTSSDIQKILSYALLADNSITLNSIEESMASLKLKKMSAEQLIELLEVSSMVLRNTNNSWSIL | -2.28
44 | HMNMENIADKIGKIYESLPEDLKLMIKYRDIDDLTYDEIAVKADLPVGTVRSRLHRAREQLLKELEKN | -0.233
45 | HMNMEPNWLKWAKQLAALAQNGLTYSDNPYEIERYEHIRRIAAEMMAEGFELDTKTILELFPREKG | -2.68
46 | HMNMFDMRKTGARISQLRRAAGLTQAELAEKLGISYQAVSSWERGSNMPDIGKLLDLARILNTTVDALLSA | -1.19
47 | HMNMGKRFKELRKERKFTQQQLADRIGLAPSAISSYESGARYPSYDVLIKYSKIFHVTTDYLLG | -2.79
48 | HMNMKVGPVPANVVPANIKAHVSNNYSKYQIVQMMQNDKGYQVKLSNGTDLYYDKDGNILKTS | 0.0129
49 | HMNMSVGAALRRRRNELGMTLRELADEAELTSGFLSQVENDRVSPSLKSLGRIAEVLRIPLFQLLS | -1.72
50 | HMNMSVVEKVIQQISNPGRDSLIPILQAVQEEEGFISRESVIEIGKALDLPASKIYGVATFYNQFR | -0.206
